Data from patent US20240358813A1.
Read-outs that look alike come from different tables or passages of the source.

How the values were obtained:
[1] = biological target: gp42 wild-type (1-223) (Epstein-Barr virus) (UniProt P03205); experiment: flow cytometry, stable CHO cells kept in 10 µg/ml puromycin, mAb at 1:200, goat anti-mouse IgG Alexa Fluor 488
[2] = biological target: gp350-F: EBV gp350 (1-864) ectodomain fused to the Newcastle disease virus fusion protein (NDV-F) tr (Epstein-Barr virus; Newcastle disease virus) (UniProt P03200)
Chain of UniProt P03200 (P03200 1-864): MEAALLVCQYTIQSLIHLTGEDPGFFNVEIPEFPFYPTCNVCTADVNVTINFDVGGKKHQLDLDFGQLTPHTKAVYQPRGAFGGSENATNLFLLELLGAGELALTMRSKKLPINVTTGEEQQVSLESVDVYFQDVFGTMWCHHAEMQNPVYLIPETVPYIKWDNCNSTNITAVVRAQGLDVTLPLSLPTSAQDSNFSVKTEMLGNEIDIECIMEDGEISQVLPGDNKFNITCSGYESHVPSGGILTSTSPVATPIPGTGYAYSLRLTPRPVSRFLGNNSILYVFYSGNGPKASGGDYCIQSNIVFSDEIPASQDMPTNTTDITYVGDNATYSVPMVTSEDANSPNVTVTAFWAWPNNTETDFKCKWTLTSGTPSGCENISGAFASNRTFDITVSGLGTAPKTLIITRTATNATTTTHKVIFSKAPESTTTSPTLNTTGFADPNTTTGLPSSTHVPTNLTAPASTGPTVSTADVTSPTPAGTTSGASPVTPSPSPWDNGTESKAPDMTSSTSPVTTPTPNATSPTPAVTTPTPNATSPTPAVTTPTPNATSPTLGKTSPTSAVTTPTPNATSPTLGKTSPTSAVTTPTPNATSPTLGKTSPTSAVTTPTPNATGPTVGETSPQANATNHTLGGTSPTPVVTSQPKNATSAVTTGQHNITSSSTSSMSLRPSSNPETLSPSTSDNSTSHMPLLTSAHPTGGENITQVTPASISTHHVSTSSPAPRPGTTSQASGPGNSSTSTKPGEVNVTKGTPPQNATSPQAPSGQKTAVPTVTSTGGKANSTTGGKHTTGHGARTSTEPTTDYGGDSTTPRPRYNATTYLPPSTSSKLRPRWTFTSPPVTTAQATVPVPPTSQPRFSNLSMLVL

[3] = biological target: gp350-F: EBV gp350 (1-864) ectodomain fused to the Newcastle disease virus fusion protein (NDV-F) tr (Epstein-Barr virus; Newcastle disease virus) (UniProt P03200); experiment: flow cytometry, […], mAb at 1:200, […]
[4] = biological target: gp350-F: EBV gp350 (1-864) ectodomain fused to the Newcastle disease virus fusion protein (NDV-F) tr (Epstein-Barr virus; Newcastle disease virus) (UniProt P03200); remark: listed apart in the source

Chain of UniProt P03205 (P03205 whole entry, the tested form may be a part): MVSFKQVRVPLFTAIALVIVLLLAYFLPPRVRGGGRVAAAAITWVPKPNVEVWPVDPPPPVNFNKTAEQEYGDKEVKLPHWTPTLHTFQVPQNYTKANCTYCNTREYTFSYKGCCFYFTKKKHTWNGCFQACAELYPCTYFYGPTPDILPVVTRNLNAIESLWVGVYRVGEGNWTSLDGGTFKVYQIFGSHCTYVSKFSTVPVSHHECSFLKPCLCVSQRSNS

Substance: anti-gp42 mAb (F-2-1) (antibody)
- percent positive cells [1]: > 90%

Substance: anti-gp350 mAb 2L10 (antibody)
- percent positive cells [2]: > 90%

Substance: anti-gp350 monoclonal antibody (mAb) 72A1
- percent positive cells [3]: > 90%
- percent positive cells [4]: 95%
